In the RNAGym collection of RNA variant scans (doi:10.7554/elife.80360):

B1: Hammerhead Ribozyme (parent)
chain: ACCGGAUGUGCUUUCCGGUCUGAUGAGUCCGUGAGGACGAAACAG

Variants of: B1
Test: self-cleavage, relative activity (ratio to wild type); higher = more cleavage; co-transcriptional

Variant	self-cleavage
G10A C30G	0.783
G10A C30A	1.01
G10A C30U	1.06
U9G A26U	0.344
U9G A26G	0.345
U9G A26C	0.32
U9G A44U	0.388
U9G A44G	1.07
U9G A44C	0.39
G10A G45C	0.93
G10A G45U	0.767
G10A G45A	0.9
U9G A23C	0.448
U9G A23G	0.385
U9G A23U	0.366
G10C A37U	0.576
G10C A37C	1.21
G10C A37G	0.958
U9C G22A	0.34
U9C G22U	0.307
U9C G22C	0.266
G10C A41C	0.299
G10C A41U	0.358
G10C A41G	0.392

Variant	self-cleavage
U9G C20U	0.468
U9G C20A	0.331
U9G C20G	0.422
G10A G18A	0.943
G10A G18C	0.615
G10A G18U	1.13
G10A G31U	0.938
G10A G31C	1.16
G10A G31A	1.08
U9G G22U	0.358
U9G G22A	0.321
U9G G22C	0.399
G10C A40G	0.398
G10C A40C	0.457
G10C A40U	0.28
G10A U13A	1.72
G10A U13C	1.39
G10A U13G	0.956
G10A G35A	0.853
G10A G35U	0.925
G10A G35C	0.763
G10C C43A	0.354
G10C C43U	0.524
G10C C43G	0.381

Variant	self-cleavage
G10A A44C	0.517
G10A A44U	0.741
G10A A44G	1.71
G10A C29A	0.654
G10A C29U	1.17
G10A C29G	0.853
U9G C38U	0.876
U9G C38A	0.671
U9G C38G	0.486
U9C U12G	1.1
U9C U12A	1.15
U9C U12C	0.982
G10C G17U	0.932
G10C G17A	0.926
G10C G17C	0.614
U9G U13A	1.93
U9G U13C	1.04
U9G U13G	0.802
U9G C30A	0.677
U9G C30U	1.26
U9G C30G	0.898
G10A G17A	0.81
G10A G17C	0.61
G10A G17U	0.986

Variant	self-cleavage
U9C G35U	0.713
U9C G35C	0.498
U9C G35A	0.814
U9C G39C	0.434
U9C G39A	0.313
U9C G39U	0.264
G10C C29A	0.678
G10C C29U	1.44
G10C C29G	0.638
U9G G39U	0.319
U9G G39C	0.33
U9G G39A	0.307
U9G A41G	0.303
U9G A41C	0.294
U9G A41U	0.306
G10A G33U	1.01
G10A G33C	0.959
G10A G33A	1.21
U9G C16G	0.456
U9G C16A	0.835
U9G C16U	0.848
G10A U24G	0.875
G10A U24A	1.12
G10A U24C	0.932

Variant	self-cleavage
U9C G27A	0.973
U9C G27U	0.505
U9C G27C	0.774
G10A A26U	0.925
G10A A26G	0.353
G10A A26C	0.666
U9G G36C	0.593
U9G G36U	0.569
U9G G36A	0.57
G10A U14C	0.97
G10A U14G	1.04
G10A U14A	1.21
U9C U13A	1.18
U9C U13C	0.843
U9C U13G	0.946
G10A G36C	0.843
G10A G36U	0.632
G10A G36A	0.742
G10C A34G	0.841
G10C A34U	0.934
G10C A34C	0.424
G10A G25U	0.345
G10A G25A	0.365
G10A G25C	0.362

Variant	self-cleavage
U9C U21A	0.496
U9C U21G	0.72
U9C U21C	0.718
G10C G27A	0.887
G10C G27C	0.994
G10A G39A	0.373
G10A G39U	0.401
G10A G39C	0.45
U9C G18A	0.627
U9C G18C	0.47
U9C G18U	0.738
G10A A23G	0.34
G10A A23C	0.375
G10A A23U	0.33
U9C G17C	0.354
U9C G17U	0.897
U9G U14A	0.916
U9G U14G	0.991
U9G U14C	0.41
U9G C15G	0.729
U9G C15U	0.842
U9G C15A	0.758
G10C G18C	0.614
G10C G18U	0.746

Variant	self-cleavage
G10C G18A	1.06
U9G U28G	0.729
U9G U28A	0.833
U9G U28C	0.673
G10A C15U	0.919
G10A C15G	0.899
G10A C15A	0.927
U9G G31U	0.51
U9G G31C	0.754
U9G G31A	1.14
G10C A44U	0.57
G10C A44G	1.44
G10C A44C	0.61
G10A G27A	0.94
G10A G27C	0.701
G10A G27U	0.431
U9G	0.989
U9G C29U	0.713
U9G C29G	0.534
U9G C29A	0.655
U9C U19C	0.514
U9C U19A	0.286
U9C U19G	0.525
